Test results reported in PMC3959803 (Experimental biology and medicine (Maywood, N.J.), 2009).

Target: T1, His-p55 (recombinant His-tagged erythrocyte p55/MPP1) (human, UniProt Q00013-1 1-466)
T1 sequence (looked up): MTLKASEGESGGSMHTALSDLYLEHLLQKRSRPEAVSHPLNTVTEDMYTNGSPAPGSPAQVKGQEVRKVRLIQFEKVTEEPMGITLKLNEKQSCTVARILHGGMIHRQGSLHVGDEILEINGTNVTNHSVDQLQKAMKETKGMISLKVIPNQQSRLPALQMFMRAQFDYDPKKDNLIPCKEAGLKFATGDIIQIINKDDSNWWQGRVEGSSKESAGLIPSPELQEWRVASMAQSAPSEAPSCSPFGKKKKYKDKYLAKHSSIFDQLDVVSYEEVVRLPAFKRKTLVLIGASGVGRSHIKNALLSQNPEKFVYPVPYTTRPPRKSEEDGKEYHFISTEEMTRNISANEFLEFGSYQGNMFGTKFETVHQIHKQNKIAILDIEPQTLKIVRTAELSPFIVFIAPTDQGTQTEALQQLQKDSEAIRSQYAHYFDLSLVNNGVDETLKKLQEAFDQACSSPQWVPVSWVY
Experiment: SPR

B1: MBP-NF2-N (merlin N-terminal half, aa 1-311, including the FERM domain) (domain or fragment, human, UniProt P35240 1-311, looked up)
chain: MAGAIASRMSFSSLKRKQPKTFTVRIVTMDAEMEFNCEMKWKGKDLFDLVCRTLGLRETWFFGLQYTIKDTVAWLKMDKKVLDHDVSKEEPVTFHFLAKFYPENAEEELVQEITQHLFFLQVKKQILDEKIYCPPEASVLLASYAVQAKYGDYDPSVHKRGFLAQEELLPKRVINLYQMTPEMWEERITAWYAEHRGRARDEAEMEYLKIAQDLEMYGVNYFAIRNKKGTELLLGVDALGLHIYDPENRLTPKISFPWNEIRNISYSDKEFTIKPLDKKIDVFKFNSSKLRVNKLILQLCIGNHDLFMRRR
Binder B1 has a Kd of 3.7 nM.
